From publication PMC9911985 (Journal of Molecular Biology, 2023)
Where no end group is shown, it is not given here. MBP = not defined here

Target: the molecule itself
Assay: SEC

## {6xHis-MBP}-SCILLYVVFQKLSARLRALR (domain or fragment, reading uncertain) [6xHis-MBP-selenos 40–59]
  binding result: binds
